# Laboratory results published in patent publication US9884910B2, “Anti-PDGF-C antibodies” (ThromboGenics NV, priority 2012, dated 2018).
# What was measured:
# [1] = molecular target: T1, PDGFRα activation by human PDGF-C (Homo sapiens, UniProt Q9NRA1); experiment: PathHunter PDGFRα receptor tyrosine kinase assay in U2OS PDGFRα PLCG1 cells; assay type: cell-based
# T1 construct: the growth factor domain of PDGF-C (amino acids 235-345 of human PDGF-C); purchased R&D Systems 1687-CC/CF; host or cells: ligand added to U2OS PDGFRα PLCG1 cells (DiscoveRx, assay 93-0823C3) that express the transfected receptor
# T1 sequence (Q9NRA1 235-345): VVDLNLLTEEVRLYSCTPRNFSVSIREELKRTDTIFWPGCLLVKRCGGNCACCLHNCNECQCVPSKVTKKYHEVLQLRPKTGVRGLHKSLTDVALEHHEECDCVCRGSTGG
# Text: To evaluate the inhibitory activity of anti-human PDGF-C antibodies on PDGFRα activation by human PDGF-C, the PathHunter® receptor tyrosine kinase assay for PDGFRα (93-0823C3) from DiscoveRx® was used. […] A small complementing fragment of β-gal, the Prolink™ tag (PK) has been fused recombinantly to the intracellular C-terminus of the receptor tyrosine kinase PDGFRα. The larger portion of β-gal, termed EA for enzyme acceptor, is co-expressed with an SH2 (Src Homology 2) phosphotyrosine binding domain. Ligand-induced activation of the receptor results in dimerization and intra-cellular cross-phosphorylation of the receptor. Subsequently, the SH2 domain specifically binds the phosphorylated receptor resulting in the complementation of the two β-gal fragments PK and EA, and formation of a functional β-gal enzyme. Following addition of a β-gal substrate, an easily detectable chemiluminescent signal is produced which is directly correlated to receptor activation. The LumiLITE™ microplate reader is fully compatible with all EFC-based assays of DiscoveRx® and is therefore used.
# For the PathHunter® PDGFRα, assay, U2OS PDGFRα, PLCG1 (phospholipase Cγ as the source of the SH2 domain) cells from DiscoveRx® were used. Frozen cells were stored in liquid nitrogen. Upon thawing, cells were resuspended in pre-warmed thawing medium (i.e. culture medium without the selection antibiotics Geneticin and Hygromycin B). After 48 hours of culture in a 5% CO2 incubator at 37° C., thawing medium was replaced by culture medium (MEM Eagle 1× (30-2003 from Invitrogen), 10% fetal bovine serum (SH30071.03 from Perbio Science), 1× Penicillin-Streptomycin-Glutamine (10378-016 from Invitrogen), 250 μg/ml Hygromycin B (10687-010 from Invitrogen), 500 μg/ml Geneticin (10131-035 from Invitrogen)). Once confluence was reached, cells were passaged with a ⅓ dilution every 2-3 days using Accutase (L11-007 from PAA). Cells were maintained in a non-confluent state during routine culture.
# In the PathHunter® PDGFRα, assay, the U2OS PDGFRα, PLCG1 cells from DiscoveRx® cultured up to 10 passages were used. Cells were seeded at 20.000 cells in 100 μl per well in 96-well white culture-treated microplates with clear bottom (3610 from Corning). The PathHunter® Cell Plating 16 Reagent (93-0563R16 from DiscoveRx®) was employed as seeding medium. Following 24 hours of culture in 5% CO2 at 37° C., 25 μl of a 5-fold concentrated agonist solution in Cell Plating 16 Reagent was used per well to stimulate the cells. Recombinant human PDGF-C from R&D Systems (1687-CC/CF; Va1235-Gly345) was applied as agonist. After 3 hours incubation at room temperature, 60 μl of PathHunter® detection reagent (93-0001 from DiscoveRx®; 1 part Galacton Star® Substrate, 5 parts Emerald II™ Solution, and 19 parts of PathHunter® Cell Assay Buffer) was added. Cells were placed at room temperature and in the dark for another hour before luminescence was measured with the LumiLITE™ microplate reader. With GraphPad Prism® software, a non-linear regression analysis was performed using the obtained luminescent values in order to generate a sigmoidal agonist dose-response curve with variable slope. The EC50 (i.e. half maximal effective concentration) and EC80 value (i.e. the effective concentration that leads to 80% of the maximal response) for human PDGF-C was calculated.
# To evaluate the inhibitory activity of anti-human PDGF-C antibodies on PDGFRα, activation by human PDGF-C, equal volumes of […] concentrated solutions of anti-human PDGF-C antibodies and the EC80 of human PDGF-C, prepared in Cell Plating 16 Reagent, were mixed and the assay was performed as described above. As positive controls, an anti-human PDGF-C polyclonal goat IgG antibody (AF1560 from R&D Systems) and recombinant human PDGFRα, Fc chimera (6765-PR from R&D Systems) were employed. […]
# [2] = molecular target: T2, 15-mer, overlapping peptides covering the entire human PDGF-C molecule (Homo sapiens, UniProt Q9NRA1); experiment: Epitope mapping ELISA on 15-mer overlapping peptides; assay type: binding; conditions: peptide coated 10 μg/mL, antibody 1 μg/mL
# T2 construct: host or cells: chemical synthesis
# Description: The binding of anti-PDGF-C antibodies to 15-mer, overlapping peptides covering the entire human PDGF-C molecule was assessed by ELISA. Antibodies included in this analysis are the five antibodies potently inhibiting activation of PDGF-Rα by PDGF-C, i.e. monoclonal antibodies 2D3, 5A2, 5H7, 16B1 and 29H1. Further included are two antibodies capable of binding to PDGF-C, but not or very poorly inhibiting activation of PDGF-Rα by PDGF-C, i.e. monoclonal antibodies 12E5 (IgG1) and 19F12 (IgG2b) (see Example 4). […] For all antibodies, it was confirmed that they bind to human PDGF-C and binding to full-length human PDGF-C was for all antibodies tested more efficient than binding to any of the peptides identified as described hereafter.
# The indicated peptides where synthesized in an N-terminally biotinylated form and coated onto a neutravidin plate (Thermo Scientific, Cat. 15127) at a concentration of 10 μg/mL. The antibodies listed in the table were incubated in each well at a concentration of 1 μg/mL and, following washing, were then detected in a standard ELISA format using an appropriate, HRP-labeled secondary antibody (goat anti-mouse IgG-HRP for all antibodies except sc-80290, and goat anti-rat IgG-HRP for sc-80290). Each antibody was tested at least twice, and up to 4 times. A “+” in the table indicate that a signal to background >3 was found and confirmed at least once. The background signal was measured in the absence of peptide using both the primary and the secondary antibodies. Antibodies sc-80290 and MAB1560 were tested only against peptides 42-63 since this represents the fraction of the protein that was used as an immunogen.
# glioblastoma tumor, U118 = experiment: Antitumor effect against U118 glioblastoma xenograft; assay type: in vivo; conditions: for TGI (%) Day 53: day 53 post-tumor implantation; for TGI (%) Day 60: day 60 post-tumor implantation; for TGI (%) Day 63: day 63 post-tumor implantation; for TGI (%) Day 67: day 67 post-tumor implantation
# Description: For the evaluation of anti-tumor activity of the antibodies, animals were weighed and tumors measured 2 times weekly using a caliper. Tumor weights were calculated using the formula mass (mg)=[length (mm)×width (mm)^2]/2. Antitumor activity evaluation was done at the single dose of 20 mg/kg. A dosage producing a 20% body weight loss (bwl) or 10% or more drug deaths, was considered an excessively toxic dosage. Animal body weights included the tumor weights. The primary efficacy end point is the tumor growth inhibition (% TGI). Changes in tumor volume for each treated (T) and control (C) are calculated for each tumor by subtracting the tumor volume on the day of first treatment (staging day) from the tumor volume on the specified observation day. The median ΔT is calculated for the treated group and the median ΔC is calculated for the control group. Then the ratio ΔT/ΔC is calculated and expressed as a percentage of TGI: ΔT=Tt−T0 ΔC=Ct−C0 % TGI=[1−(median(Tt−T0)/median(Ct−C0)]*100
# The antitumor effect of 29H1, 5A2 and 16B1 was evaluated against a measurable glioblastoma tumor, U118, which express both PDGF-C and its receptor, PDGFRa, S.C. implanted in female SCID Beige mice. Control group was treated with PBS alone. The antibodies were administered by an intraperitoneal (IP) injection, and treatment started on day 28 post-tumor implantation and was performed twice a week.
# [3] = peptide binds secondary antibody
# [4] = 20 mg/kg IP twice a week from day 28
Molecule,binding to peptide No 58 (SEQ ID NO: 96) VLQLRPKTGVRGLHK [2],"TGI (%) Day 53 (glioblastoma tumor, U118; [4]) [%]","TGI (%) Day 60 (glioblastoma tumor, U118; [4]) [%]","TGI (%) Day 63 (glioblastoma tumor, U118; [4]) [%]","TGI (%) Day 67 (glioblastoma tumor, U118; [4]) [%]",further results
"Humanized mAb 5H7: humanized 5H7; VH SEQ ID NO:102, VL SEQ ID NO:103 (antibody, V domains shown, humanized variable heavy chain murine monoclonal antibody 5H7; humanized variable light chain murine monoclonal antibody 5H7) VH: EVQLLESGGGLVQPGGSLRLSCAASGFTFSSYGMSWVRQTPGKGLEWVATIGYGGSFTYYPDSMKGRFTISRDNAKNTLYLQMNSLRAEDTAVYYCARQAPLWDYFDYWGQGTLLTVSS VL: DVVMTQSPLSLPVTLGQPASISCRSSQTIVHSDGTTYLEWYLQKPGQSPRLLIYKVSNRFSGVPDRFSGSGSGTDFTLKISRVEAEDVGVYYCFQGSHVPPTFGQGTKLEIK",,,,,,"inhibition of the PDGFRα activation by human PDGF-C (in words) [1]: apparently not inhibiting activation of PDGFR-α; IC50 value (nM) ([1]; humanized antibodies, * average of 3 measurements): nad"
"5A2: murine monoclonal anti-PDGF-C antibody, IgG2b κ; VL SEQ ID NO:15, VH SEQ ID NO:19 (antibody, listed as Mus musculus, V domains shown) VH: EVQLVESGGDLVKPGGSLKLSCAASGFTFSNYGMSWVRQTPDKRLEWVATIGSGGHYTYYPDSVKGRFTISRDSAKSTLYLQMSSLKSEDTAIYYCARQAPLWDCSDYWGQGTTLTVSS VL: DVLMTQTPLSLPVSLGDQASISCRSNQSIVHSNGDTYLEWYLQKPGQSPKLLIYKVSNRFSGVPDRFSGSGSGTDFTLKISRVEAEDLGVYYCFQGSHVPPTFGGGTKLEIK",+ (A “+” in the table indicate that a signal to background >3 was found and confirmed at least once),55.7,38.5,43.4,42.0,"binding to peptide No 9 (SEQ ID NO: 47) FPHTYPRNTVLVWRL [2, 3]: + (A “+” in the table indicate that a signal to background >3 was found and confirmed at least once); binding to peptide No 27 (SEQ ID NO: 65) EPGFCIHYNIVMPQF [2, 3]: + (A “+” in the table indicate that a signal to background >3 was found and confirmed at least once); tolerability / body weight loss (glioblastoma tumor, U118; 20 mg/kg IP twice a week): well-tolerated with no tumor body weight loss; TGI (%) Day 56 (glioblastoma tumor, U118; 20 mg/kg IP twice a week from day 28, day 56 post-tumor implantation): 58.5%"
"5H7: murine monoclonal anti-PDGF-C antibody, IgG1 κ; VL SEQ ID NO:16, VH SEQ ID NO:20 (antibody, listed as Mus musculus, V domains shown) VH: EVQLVESGGDLVKPGGSLKLSCAASGFTFSSYGMSWVRQTPDKRLEWVATIGYGGSFTYYPDSMKGRFTISRDNAKNTLFLQMSSLKSEDTAIYYCVRQAPLWDYFDYWGQGTTLTVSS VL: DVLMTQTPLSLPVSLGDQASISCRSSQTIVHSDGTTYLEWYLQKAGQSPKLLIYKVSNRFSGVPDRFSGSGSGTDFTLKISRVEAEDLGVYYCFQGSHVPPTFGGGTKLEIK",+ (A “+” in the table indicate that a signal to background >3 was found and confirmed at least once),,,,,
"2D3: murine monoclonal anti-PDGF-C antibody, IgG1 κ; VL SEQ ID NO:14, VH SEQ ID NO:18 (antibody, listed as Mus musculus, V domains shown) VH: EVQLVESGGDLVKPGGSLKLSCAASGFTFSNYGMSWVRQTPDKRLEWVATIGSGGSYTYYPDSVKGRFTISRDSAKNTLYLQMSSLKSEDTAMYYCARQAPLWDYSDYWGQGTTLTVSS VL: DVLMTQTPLSLPVSLGDQASISCRSNQTIVHSNGDTYLEWYLQKPGQSPNLLIYKVSNRFSGVPDRFSGSGSGTDFTLKISRVEAEDLGVYYCFQGSHVPPTFGGGTKLEIK",+ (A “+” in the table indicate that a signal to background >3 was found and confirmed at least once),,,,,
"16B1: murine monoclonal anti-PDGF-C antibody, IgG1 κ; VL SEQ ID NO:15, VH SEQ ID NO:18 (antibody, listed as Mus musculus, V domains shown) VH: EVQLVESGGDLVKPGGSLKLSCAASGFTFSNYGMSWVRQTPDKRLEWVATIGSGGSYTYYPDSVKGRFTISRDSAKNTLYLQMSSLKSEDTAMYYCARQAPLWDYSDYWGQGTTLTVSS VL: DVLMTQTPLSLPVSLGDQASISCRSNQSIVHSNGDTYLEWYLQKPGQSPKLLIYKVSNRFSGVPDRFSGSGSGTDFTLKISRVEAEDLGVYYCFQGSHVPPTFGGGTKLEIK",,8.25,27.6,11.5,11.9,"tumor growth block (in words) (glioblastoma tumor, U118; ip, at the different time points evaluated): failed to block tumor growth"
